# B1: library; numbered along this chain (parent)
# chain: MRKPRAAVGSGHRKQAASQEGRQKHAKNNSQAKPSACDGLARQPEEVVLQASVSSYHLFRDVAEVTAFRGSLLSWYDQEKRDLPWRRRAEDEMDLDRRAYAVWVSEVMLQQTQVATVINYYTGWMQKWPTLQDLASASLEEVNQLWAGLGYYSRGRRLQEGARKVVEELGGHMPRTAETLQQLLPGVGRYTAGAIASIAFGQATGVVDGNVARVLCRVRAIGADPSSTLVSQQLWGLAQQLVDPARPGDFNQAAMELGATVCTPQRPLCSQCPVESLCRARQRVEQEQLLASGSLSGSPDVEECAPNTGQCHLCLPPSEPWDQTLGVVNFPRKASRKPPREESSATCVLEQPGALGAQILLVQRPNSGLLAGLWEFPSVTWEPSEQLQRKALLQELQRWAGPLPATHLRHLGEVVHTFSHIKLTYQVYGLALEGQTPVTTVPPGARWLTQEEFHTAAVSTAMKKVFRVYQGQQPGTCMGSKRSQVSSPCSRKKPRMGQQVLDNFFRSHISTDAHSLNSAAQ
# Variants of: B1
# Assay: 8OG:A repair function score (normalized; synonymous = 0, nonsense = -1) (normalized log-likelihood score); higher = more repair activity (WT-like)
# Settings: with 8OG:A DNA repair reporter (GFP) in HEK-293 MUTYH KO cells
# Experimental: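 Saturation mutagenesis (NNN codon scan) of the MUTYH cDNA (521-aa nuclear isoform NM_001048174.1 / NP_001041639), stably expressed under doxycycline induction in HEK-293 MUTYH knockout cells. Cells were co-transfected with an 8OG:A-bearing GFP repair reporter plus mCherry and sorted 72 h later into GFP+ and GFP− bins, three replicates per tile. The Rosace log2 enrichment (GFP+ vs GFP−) was converted per tile to a normalized function score with synonymous variants centered at 0 and nonsense variants (codons 1-471) at -1; low-abundance variants were removed.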
row,Variant,8OG:A repair function score
1,MRKPRAAVGSGHRKQAASQEGRQKHAKNNSQAKPSACDGLARQPEEVVLQASVSSYHLFRDVAEVTAFRGSLLSWYDQEKRDLPWRRRAEDEMDLDRRAYAVWVSEVMLQQTQVATVINYYTGWMQKWPTLQDLATASLEEVNQLWAGLGYYSRGRRLQEGARKVVEELGGHMPRTAETLQQLLPGVGRYTAGAIASIAFGQATGVVDGNVARVLCRVRAIGADPSSTLVSQQLWGLAQQLVDPARPGDFNQAAMELGATVCTPQRPLCSQCPVESLCRARQRVEQEQLLASGSLSGSPDVEECAPNTGQCHLCLPPSEPWDQTLGVVNFPRKASRKPPREESSATCVLEQPGALGAQILLVQRPNSGLLAGLWEFPSVTWEPSEQLQRKALLQELQRWAGPLPATHLRHLGEVVHTFSHIKLTYQVYGLALEGQTPVTTVPPGARWLTQEEFHTAAVSTAMKKVFRVYQGQQPGTCMGSKRSQVSSPCSRKKPRMGQQVLDNFFRSHISTDAHSLNSAAQ [S136T],0.078
2,MRKPRAAVGSGHRKQAASQEGRQKHAKNNSQAKPSACDGLARQPEEVVLQASVSSYHLFRDVAEVTAFRGSLLSWYDQEKRDLPWRRRAEDEMDLDRRAYAVWVSEVMLQQTQVATVINYYTGWMQKWPTLQDLAQASLEEVNQLWAGLGYYSRGRRLQEGARKVVEELGGHMPRTAETLQQLLPGVGRYTAGAIASIAFGQATGVVDGNVARVLCRVRAIGADPSSTLVSQQLWGLAQQLVDPARPGDFNQAAMELGATVCTPQRPLCSQCPVESLCRARQRVEQEQLLASGSLSGSPDVEECAPNTGQCHLCLPPSEPWDQTLGVVNFPRKASRKPPREESSATCVLEQPGALGAQILLVQRPNSGLLAGLWEFPSVTWEPSEQLQRKALLQELQRWAGPLPATHLRHLGEVVHTFSHIKLTYQVYGLALEGQTPVTTVPPGARWLTQEEFHTAAVSTAMKKVFRVYQGQQPGTCMGSKRSQVSSPCSRKKPRMGQQVLDNFFRSHISTDAHSLNSAAQ [S136Q],-0.0528
3,MRKPRAAVGSGHRKQAASQEGRQKHAKNNSQAKPSACDGLARQPEEVVLQASVSSYHLFRDVAEVTAFRGSLLSWYDQEKRDLPWRRRAEDEMDLDRRAYAVWVSEVMLQQTQVATVINYYTGWMQKWPTLQDLAWASLEEVNQLWAGLGYYSRGRRLQEGARKVVEELGGHMPRTAETLQQLLPGVGRYTAGAIASIAFGQATGVVDGNVARVLCRVRAIGADPSSTLVSQQLWGLAQQLVDPARPGDFNQAAMELGATVCTPQRPLCSQCPVESLCRARQRVEQEQLLASGSLSGSPDVEECAPNTGQCHLCLPPSEPWDQTLGVVNFPRKASRKPPREESSATCVLEQPGALGAQILLVQRPNSGLLAGLWEFPSVTWEPSEQLQRKALLQELQRWAGPLPATHLRHLGEVVHTFSHIKLTYQVYGLALEGQTPVTTVPPGARWLTQEEFHTAAVSTAMKKVFRVYQGQQPGTCMGSKRSQVSSPCSRKKPRMGQQVLDNFFRSHISTDAHSLNSAAQ [S136W],-0.154
4,MRKPRAAVGSGHRKQAASQEGRQKHAKNNSQAKPSACDGLARQPEEVVLQASVSSYHLFRDVAEVTAFRGSLLSWYDQEKRDLPWRRRAEDEMDLDRRAYAVWVSEVMLQQTQVATVINYYTGWMQKWPTLQDLARASLEEVNQLWAGLGYYSRGRRLQEGARKVVEELGGHMPRTAETLQQLLPGVGRYTAGAIASIAFGQATGVVDGNVARVLCRVRAIGADPSSTLVSQQLWGLAQQLVDPARPGDFNQAAMELGATVCTPQRPLCSQCPVESLCRARQRVEQEQLLASGSLSGSPDVEECAPNTGQCHLCLPPSEPWDQTLGVVNFPRKASRKPPREESSATCVLEQPGALGAQILLVQRPNSGLLAGLWEFPSVTWEPSEQLQRKALLQELQRWAGPLPATHLRHLGEVVHTFSHIKLTYQVYGLALEGQTPVTTVPPGARWLTQEEFHTAAVSTAMKKVFRVYQGQQPGTCMGSKRSQVSSPCSRKKPRMGQQVLDNFFRSHISTDAHSLNSAAQ [S136R],0.0299
5,MRKPRAAVGSGHRKQAASQEGRQKHAKNNSQAKPSACDGLARQPEEVVLQASVSSYHLFRDVAEVTAFRGSLLSWYDQEKRDLPWRRRAEDEMDLDRRAYAVWVSEVMLQQTQVATVINYYTGWMQKWPTLQDLANASLEEVNQLWAGLGYYSRGRRLQEGARKVVEELGGHMPRTAETLQQLLPGVGRYTAGAIASIAFGQATGVVDGNVARVLCRVRAIGADPSSTLVSQQLWGLAQQLVDPARPGDFNQAAMELGATVCTPQRPLCSQCPVESLCRARQRVEQEQLLASGSLSGSPDVEECAPNTGQCHLCLPPSEPWDQTLGVVNFPRKASRKPPREESSATCVLEQPGALGAQILLVQRPNSGLLAGLWEFPSVTWEPSEQLQRKALLQELQRWAGPLPATHLRHLGEVVHTFSHIKLTYQVYGLALEGQTPVTTVPPGARWLTQEEFHTAAVSTAMKKVFRVYQGQQPGTCMGSKRSQVSSPCSRKKPRMGQQVLDNFFRSHISTDAHSLNSAAQ [S136N],-0.0676
6,MRKPRAAVGSGHRKQAASQEGRQKHAKNNSQAKPSACDGLARQPEEVVLQASVSSYHLFRDVAEVTAFRGSLLSWYDQEKRDLPWRRRAEDEMDLDRRAYAVWVSEVMLQQTQVATVINYYTGWMQKWPTLQDLAYASLEEVNQLWAGLGYYSRGRRLQEGARKVVEELGGHMPRTAETLQQLLPGVGRYTAGAIASIAFGQATGVVDGNVARVLCRVRAIGADPSSTLVSQQLWGLAQQLVDPARPGDFNQAAMELGATVCTPQRPLCSQCPVESLCRARQRVEQEQLLASGSLSGSPDVEECAPNTGQCHLCLPPSEPWDQTLGVVNFPRKASRKPPREESSATCVLEQPGALGAQILLVQRPNSGLLAGLWEFPSVTWEPSEQLQRKALLQELQRWAGPLPATHLRHLGEVVHTFSHIKLTYQVYGLALEGQTPVTTVPPGARWLTQEEFHTAAVSTAMKKVFRVYQGQQPGTCMGSKRSQVSSPCSRKKPRMGQQVLDNFFRSHISTDAHSLNSAAQ [S136Y],0.0366
7,MRKPRAAVGSGHRKQAASQEGRQKHAKNNSQAKPSACDGLARQPEEVVLQASVSSYHLFRDVAEVTAFRGSLLSWYDQEKRDLPWRRRAEDEMDLDRRAYAVWVSEVMLQQTQVATVINYYTGWMQKWPTLQDLAPASLEEVNQLWAGLGYYSRGRRLQEGARKVVEELGGHMPRTAETLQQLLPGVGRYTAGAIASIAFGQATGVVDGNVARVLCRVRAIGADPSSTLVSQQLWGLAQQLVDPARPGDFNQAAMELGATVCTPQRPLCSQCPVESLCRARQRVEQEQLLASGSLSGSPDVEECAPNTGQCHLCLPPSEPWDQTLGVVNFPRKASRKPPREESSATCVLEQPGALGAQILLVQRPNSGLLAGLWEFPSVTWEPSEQLQRKALLQELQRWAGPLPATHLRHLGEVVHTFSHIKLTYQVYGLALEGQTPVTTVPPGARWLTQEEFHTAAVSTAMKKVFRVYQGQQPGTCMGSKRSQVSSPCSRKKPRMGQQVLDNFFRSHISTDAHSLNSAAQ [S136P],-0.137
8,MRKPRAAVGSGHRKQAASQEGRQKHAKNNSQAKPSACDGLARQPEEVVLQASVSSYHLFRDVAEVTAFRGSLLSWYDQEKRDLPWRRRAEDEMDLDRRAYAVWVSEVMLQQTQVATVINYYTGWMQKWPTLQDLAVASLEEVNQLWAGLGYYSRGRRLQEGARKVVEELGGHMPRTAETLQQLLPGVGRYTAGAIASIAFGQATGVVDGNVARVLCRVRAIGADPSSTLVSQQLWGLAQQLVDPARPGDFNQAAMELGATVCTPQRPLCSQCPVESLCRARQRVEQEQLLASGSLSGSPDVEECAPNTGQCHLCLPPSEPWDQTLGVVNFPRKASRKPPREESSATCVLEQPGALGAQILLVQRPNSGLLAGLWEFPSVTWEPSEQLQRKALLQELQRWAGPLPATHLRHLGEVVHTFSHIKLTYQVYGLALEGQTPVTTVPPGARWLTQEEFHTAAVSTAMKKVFRVYQGQQPGTCMGSKRSQVSSPCSRKKPRMGQQVLDNFFRSHISTDAHSLNSAAQ [S136V],0.077
9,MRKPRAAVGSGHRKQAASQEGRQKHAKNNSQAKPSACDGLARQPEEVVLQASVSSYHLFRDVAEVTAFRGSLLSWYDQEKRDLPWRRRAEDEMDLDRRAYAVWVSEVMLQQTQVATVINYYTGWMQKWPTLQDLAMASLEEVNQLWAGLGYYSRGRRLQEGARKVVEELGGHMPRTAETLQQLLPGVGRYTAGAIASIAFGQATGVVDGNVARVLCRVRAIGADPSSTLVSQQLWGLAQQLVDPARPGDFNQAAMELGATVCTPQRPLCSQCPVESLCRARQRVEQEQLLASGSLSGSPDVEECAPNTGQCHLCLPPSEPWDQTLGVVNFPRKASRKPPREESSATCVLEQPGALGAQILLVQRPNSGLLAGLWEFPSVTWEPSEQLQRKALLQELQRWAGPLPATHLRHLGEVVHTFSHIKLTYQVYGLALEGQTPVTTVPPGARWLTQEEFHTAAVSTAMKKVFRVYQGQQPGTCMGSKRSQVSSPCSRKKPRMGQQVLDNFFRSHISTDAHSLNSAAQ [S136M],0.116
10,MRKPRAAVGSGHRKQAASQEGRQKHAKNNSQAKPSACDGLARQPEEVVLQASVSSYHLFRDVAEVTAFRGSLLSWYDQEKRDLPWRRRAEDEMDLDRRAYAVWVSEVMLQQTQVATVINYYTGWMQKWPTLQDLASDSLEEVNQLWAGLGYYSRGRRLQEGARKVVEELGGHMPRTAETLQQLLPGVGRYTAGAIASIAFGQATGVVDGNVARVLCRVRAIGADPSSTLVSQQLWGLAQQLVDPARPGDFNQAAMELGATVCTPQRPLCSQCPVESLCRARQRVEQEQLLASGSLSGSPDVEECAPNTGQCHLCLPPSEPWDQTLGVVNFPRKASRKPPREESSATCVLEQPGALGAQILLVQRPNSGLLAGLWEFPSVTWEPSEQLQRKALLQELQRWAGPLPATHLRHLGEVVHTFSHIKLTYQVYGLALEGQTPVTTVPPGARWLTQEEFHTAAVSTAMKKVFRVYQGQQPGTCMGSKRSQVSSPCSRKKPRMGQQVLDNFFRSHISTDAHSLNSAAQ [A137D],-0.219
11,MRKPRAAVGSGHRKQAASQEGRQKHAKNNSQAKPSACDGLARQPEEVVLQASVSSYHLFRDVAEVTAFRGSLLSWYDQEKRDLPWRRRAEDEMDLDRRAYAVWVSEVMLQQTQVATVINYYTGWMQKWPTLQDLASESLEEVNQLWAGLGYYSRGRRLQEGARKVVEELGGHMPRTAETLQQLLPGVGRYTAGAIASIAFGQATGVVDGNVARVLCRVRAIGADPSSTLVSQQLWGLAQQLVDPARPGDFNQAAMELGATVCTPQRPLCSQCPVESLCRARQRVEQEQLLASGSLSGSPDVEECAPNTGQCHLCLPPSEPWDQTLGVVNFPRKASRKPPREESSATCVLEQPGALGAQILLVQRPNSGLLAGLWEFPSVTWEPSEQLQRKALLQELQRWAGPLPATHLRHLGEVVHTFSHIKLTYQVYGLALEGQTPVTTVPPGARWLTQEEFHTAAVSTAMKKVFRVYQGQQPGTCMGSKRSQVSSPCSRKKPRMGQQVLDNFFRSHISTDAHSLNSAAQ [A137E],-0.16
12,MRKPRAAVGSGHRKQAASQEGRQKHAKNNSQAKPSACDGLARQPEEVVLQASVSSYHLFRDVAEVTAFRGSLLSWYDQEKRDLPWRRRAEDEMDLDRRAYAVWVSEVMLQQTQVATVINYYTGWMQKWPTLQDLASCSLEEVNQLWAGLGYYSRGRRLQEGARKVVEELGGHMPRTAETLQQLLPGVGRYTAGAIASIAFGQATGVVDGNVARVLCRVRAIGADPSSTLVSQQLWGLAQQLVDPARPGDFNQAAMELGATVCTPQRPLCSQCPVESLCRARQRVEQEQLLASGSLSGSPDVEECAPNTGQCHLCLPPSEPWDQTLGVVNFPRKASRKPPREESSATCVLEQPGALGAQILLVQRPNSGLLAGLWEFPSVTWEPSEQLQRKALLQELQRWAGPLPATHLRHLGEVVHTFSHIKLTYQVYGLALEGQTPVTTVPPGARWLTQEEFHTAAVSTAMKKVFRVYQGQQPGTCMGSKRSQVSSPCSRKKPRMGQQVLDNFFRSHISTDAHSLNSAAQ [A137C],-0.261

# Source: the supplement of paper PMC11908140
